Data set [1] concerns Saccharomyces cerevisiae. As to the kind of experiment: protein stability index of tFT-peptide fusion (C-terminal peptide) (PSI (0-1 scale)); higher = more stable (slower turnover). How it is done: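 MPS profiling in S. cerevisiae of the tFT-X12 degron library: putative degron peptides plus stable controls, 12 aa, fused to the C-terminus of a sfGFP-mCherry timer. Cells are FACS-sorted into 8 mCherry/sfGFP bins and deep-sequenced. PSI runs from 0 (unstable) to 1 (stable). Backgrounds are wild type, das1Δ and doa10Δ at 30 °C, and wild type, das1Δ, cdc34-1 and cdc53-1 at 37 °C; 2-3 technical replicates each.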

The test system of data set [2] is Saccharomyces cerevisiae. The data set is described as above. The note with it: genetic background: wild type; temperature: 30 C.
The mark [3] stands for this setting: genetic background: cdc34-1, temperature: 37 C.
The mark [4] stands for this setting: genetic background: cdc53-1, temperature: 37 C.
The mark [5] stands for this setting: genetic background: das1 deletion, temperature: 30 C.
Setting [6] is: genetic background: das1 deletion, temperature: 37 C.
Setting [7] is: genetic background: doa10 deletion, temperature: 30 C.
The mark [8] stands for this setting: genetic background: wild type, temperature: 30 C.
The mark [9] stands for this setting: genetic background: wild type, temperature: 37 C.

± gives the standard deviation of the averaged measurements.
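Note: PSI is a weighted mean of sequencing reads over stability bins, variants kept only with over 10 reads, mCherry proximal and sfGFP distal, peptide attached via GGGS linker.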

With RGYSAIWGCKMN, the protein stability index with Saccharomyces cerevisiae [1] (setting [3]) was found to be 0.619 ± 0.097; in the data set with Saccharomyces cerevisiae [1] (setting [4]), 0.742 ± 0.045; with Saccharomyces cerevisiae [1] (setting [5]), 0.654 ± 0.0072; with Saccharomyces cerevisiae [1] (setting [6]) it was 0.74 ± 0.011; with Saccharomyces cerevisiae [1] (setting [7]), 0.184 ± 0.021; in the data set with Saccharomyces cerevisiae [1] (setting [8]), 0.228 ± 0.018. In addition, the protein stability index with Saccharomyces cerevisiae [1] (setting [9]) came to 0.529 ± 0.077; with Saccharomyces cerevisiae [2] it was 0.3812 ± 0.0021.

RIIDRVSRLIML: the protein stability index is 0.765 ± 0.026 in the data set on Saccharomyces cerevisiae [1] (setting [3]); 0.826 ± 0.019 with Saccharomyces cerevisiae [1] (setting [4]); 0.689 ± 0.034 with Saccharomyces cerevisiae [1] (setting [5]); 0.765 ± 0.015 with Saccharomyces cerevisiae [1] (setting [6]); 0.453 ± 0.021 with Saccharomyces cerevisiae [1] (setting [7]); 0.482 ± 0.034 in the data set with Saccharomyces cerevisiae [1] (setting [8]). In addition, the protein stability index amounted to 0.627 ± 0.032 with Saccharomyces cerevisiae [1] (setting [9]) and 0.543 ± 0.089 with Saccharomyces cerevisiae [2].

For the sequence RKFRAWIRITRT, the protein stability index was found to be 0.627 ± 0.042 with Saccharomyces cerevisiae [1] (setting [3]); 0.725 ± 0.031 in the data set with Saccharomyces cerevisiae [1] (setting [4]); 0.635 ± 0.022 in the data set with Saccharomyces cerevisiae [1] (setting [5]); 0.71526 ± 0.00022 with Saccharomyces cerevisiae [1] (setting [6]); 0.219 ± 0.01 in the data set on Saccharomyces cerevisiae [1] (setting [7]); 0.247 ± 0.048 in the data set with Saccharomyces cerevisiae [1] (setting [8]). Moreover, the protein stability index in the data set on Saccharomyces cerevisiae [1] (setting [9]) stood at 0.471 ± 0.025; in the data set with Saccharomyces cerevisiae [2], 0.377 ± 0.013.

As for RLCKGQKYTKIN, the protein stability index in the data set with Saccharomyces cerevisiae [1] (setting [3]) is 0.597 ± 0.014; with Saccharomyces cerevisiae [1] (setting [4]) it was 0.718 ± 0.02; in the data set with Saccharomyces cerevisiae [1] (setting [5]), 0.659 ± 0.023; with Saccharomyces cerevisiae [1] (setting [6]), 0.707 ± 0.034; in the data set on Saccharomyces cerevisiae [1] (setting [7]), 0.0852 ± 0.02; with Saccharomyces cerevisiae [1] (setting [8]) it was 0.105 ± 0.026. Also, the protein stability index in the data set with Saccharomyces cerevisiae [1] (setting [9]) is 0.155 ± 0.043; in the data set on Saccharomyces cerevisiae [2], 0.105 ± 0.015.

Take RLRWLSPMTHVG: the protein stability index came out at 0.634 ± 0.013 in the data set on Saccharomyces cerevisiae [1] (setting [3]); 0.7337 ± 0.0061 in the data set on Saccharomyces cerevisiae [1] (setting [4]); 0.666 ± 0.025 in the data set with Saccharomyces cerevisiae [1] (setting [5]); 0.726 ± 0.024 with Saccharomyces cerevisiae [1] (setting [6]); 0.263 ± 0.0086 in the data set on Saccharomyces cerevisiae [1] (setting [7]); 0.286 ± 0.016 in the data set with Saccharomyces cerevisiae [1] (setting [8]). The protein stability index in the data set with Saccharomyces cerevisiae [1] (setting [9]) was found to be 0.5802 ± 0.0019; in the data set with Saccharomyces cerevisiae [2], 0.463 ± 0.012.

With RLSGACILLSLV, the protein stability index came out at 0.634 ± 0.045 in the data set with Saccharomyces cerevisiae [1] (setting [3]); 0.694 ± 0.015 in the data set on Saccharomyces cerevisiae [1] (setting [4]); 0.553 ± 0.03 with Saccharomyces cerevisiae [1] (setting [5]); 0.681 ± 0.0082 with Saccharomyces cerevisiae [1] (setting [6]); 0.217 ± 0.0063 in the data set with Saccharomyces cerevisiae [1] (setting [7]); 0.259 ± 0.022 in the data set on Saccharomyces cerevisiae [1] (setting [8]). Moreover, the protein stability index in the data set with Saccharomyces cerevisiae [1] (setting [9]) stood at 0.439 ± 0.026; in the data set on Saccharomyces cerevisiae [2] it was 0.388 ± 0.081.

As for RLSLCLAVLFLV, the protein stability index came out at 0.433 ± 0.062 in the data set on Saccharomyces cerevisiae [1] (setting [3]); 0.574 ± 0.035 with Saccharomyces cerevisiae [1] (setting [4]); 0.564 ± 0.035 in the data set with Saccharomyces cerevisiae [1] (setting [5]); 0.6468 ± 0.0032 in the data set on Saccharomyces cerevisiae [1] (setting [6]); 0.116 ± 0.0062 in the data set with Saccharomyces cerevisiae [1] (setting [7]); 0.126 ± 0.0059 in the data set on Saccharomyces cerevisiae [1] (setting [8]). In addition, the results for the protein stability index in the data set on Saccharomyces cerevisiae [1] (setting [9]) and with Saccharomyces cerevisiae [2] were 0.146 ± 0.009 and 0.205 ± 0.035, respectively.

Take RPSHTSVYRLLH: the protein stability index in the data set with Saccharomyces cerevisiae [1] (setting [3]) was determined as 0.553 ± 0.061; in the data set with Saccharomyces cerevisiae [1] (setting [4]), 0.677 ± 0.054; in the data set with Saccharomyces cerevisiae [1] (setting [5]), 0.655 ± 0.045; with Saccharomyces cerevisiae [1] (setting [6]), 0.706 ± 0.019; with Saccharomyces cerevisiae [1] (setting [7]), 0.114 ± 0.019; in the data set on Saccharomyces cerevisiae [1] (setting [8]) it was 0.148 ± 0.0086. Besides, the protein stability index in the data set on Saccharomyces cerevisiae [1] (setting [9]) is 0.337 ± 0.17; with Saccharomyces cerevisiae [2] it was 0.2545 ± 0.0022.

RRLAVWCDFRSL: the protein stability index is 0.684 ± 0.054 with Saccharomyces cerevisiae [1] (setting [3]); 0.75155 ± 0.00053 in the data set with Saccharomyces cerevisiae [1] (setting [4]); 0.663 ± 0.018 in the data set with Saccharomyces cerevisiae [1] (setting [5]); 0.7472 ± 0.00055 with Saccharomyces cerevisiae [1] (setting [6]); 0.416 ± 0.0061 with Saccharomyces cerevisiae [1] (setting [7]); 0.454 ± 0.035 in the data set on Saccharomyces cerevisiae [1] (setting [8]). The protein stability index in the data set on Saccharomyces cerevisiae [1] (setting [9]) came out at 0.653 ± 0.0095; in the data set on Saccharomyces cerevisiae [2] it was 0.45 ± 0.012.

Regarding RRPVHTHTSVSP, the protein stability index amounted to 0.7449 ± 0.00016 in the data set with Saccharomyces cerevisiae [1] (setting [3]); 0.742 ± 0.05 in the data set with Saccharomyces cerevisiae [1] (setting [4]); 0.652 ± 0.026 with Saccharomyces cerevisiae [1] (setting [5]); 0.733 ± 0.0094 with Saccharomyces cerevisiae [1] (setting [6]); 0.658 ± 0.022 in the data set on Saccharomyces cerevisiae [1] (setting [7]); 0.6561 ± 0.0035 with Saccharomyces cerevisiae [1] (setting [8]). For the same sequence, the figures for the protein stability index with Saccharomyces cerevisiae [1] (setting [9]) and in the data set with Saccharomyces cerevisiae [2] were 0.701 ± 0.012 and 0.606 ± 0.25, respectively.

For RRRGIYARASVV, the protein stability index in the data set on Saccharomyces cerevisiae [1] (setting [3]) was determined as 0.636 ± 0.018; in the data set on Saccharomyces cerevisiae [1] (setting [4]), 0.728 ± 0.019; in the data set on Saccharomyces cerevisiae [1] (setting [5]), 0.647 ± 0.019; with Saccharomyces cerevisiae [1] (setting [6]) it was 0.723 ± 0.017; in the data set with Saccharomyces cerevisiae [1] (setting [7]), 0.249 ± 0.0044; in the data set on Saccharomyces cerevisiae [1] (setting [8]), 0.276 ± 0.043. The protein stability index in the data set on Saccharomyces cerevisiae [1] (setting [9]) came to 0.434 ± 0.023; with Saccharomyces cerevisiae [2], 0.382 ± 0.015.

As for RSITFFPVCLVK, the protein stability index amounted to 0.316 ± 0.079 with Saccharomyces cerevisiae [1] (setting [3]); 0.389 ± 0.06 in the data set with Saccharomyces cerevisiae [1] (setting [4]); 0.293 ± 0.029 in the data set with Saccharomyces cerevisiae [1] (setting [5]); 0.491 ± 0.014 in the data set with Saccharomyces cerevisiae [1] (setting [6]); 0.253 ± 0.021 in the data set on Saccharomyces cerevisiae [1] (setting [7]); 0.289 ± 0.018 with Saccharomyces cerevisiae [1] (setting [8]). The results for the protein stability index in the data set with Saccharomyces cerevisiae [1] (setting [9]) and with Saccharomyces cerevisiae [2] were 0.426 ± 0.013 and 0.382 ± 0.016, respectively.

Regarding RSLSFGMVLCYS, the protein stability index worked out at 0.358 ± 0.027 in the data set with Saccharomyces cerevisiae [1] (setting [3]); 0.366 ± 0.0079 in the data set with Saccharomyces cerevisiae [1] (setting [4]); 0.248 ± 0.041 in the data set with Saccharomyces cerevisiae [1] (setting [5]); 0.4382 ± 0.0025 in the data set with Saccharomyces cerevisiae [1] (setting [6]); 0.228 ± 0.012 in the data set on Saccharomyces cerevisiae [1] (setting [7]); 0.253 ± 0.028 in the data set with Saccharomyces cerevisiae [1] (setting [8]). Moreover, the protein stability index in the data set with Saccharomyces cerevisiae [1] (setting [9]) turned out to be 0.401 ± 0.012; in the data set with Saccharomyces cerevisiae [2], 0.343 ± 0.029.

In the case of RSLSWCTKRRCC, the protein stability index is 0.595 ± 0.044 with Saccharomyces cerevisiae [1] (setting [3]); 0.7011 ± 0.0057 in the data set on Saccharomyces cerevisiae [1] (setting [4]); 0.675 ± 0.016 in the data set with Saccharomyces cerevisiae [1] (setting [5]); 0.71892 ± 0.00035 in the data set with Saccharomyces cerevisiae [1] (setting [6]); 0.221 ± 0.015 with Saccharomyces cerevisiae [1] (setting [7]); 0.226 ± 0.022 in the data set on Saccharomyces cerevisiae [1] (setting [8]). The protein stability index was determined as 0.454 ± 0.013 with Saccharomyces cerevisiae [1] (setting [9]) and 0.3718 ± 0.00091 in the data set with Saccharomyces cerevisiae [2].

As to RSSGHLLDGRAF, the protein stability index in the data set on Saccharomyces cerevisiae [1] (setting [3]) turned out to be 0.697 ± 0.03; with Saccharomyces cerevisiae [1] (setting [4]), 0.739 ± 0.011; in the data set with Saccharomyces cerevisiae [1] (setting [5]), 0.64 ± 0.02; in the data set with Saccharomyces cerevisiae [1] (setting [6]), 0.752 ± 0.011; in the data set on Saccharomyces cerevisiae [1] (setting [7]) it was 0.631 ± 0.029; with Saccharomyces cerevisiae [1] (setting [8]) it was 0.654 ± 0.021. The protein stability index in the data set with Saccharomyces cerevisiae [1] (setting [9]) was determined as 0.7353 ± 0.0026; in the data set on Saccharomyces cerevisiae [2] it was 0.539 ± 0.096.

Regarding RVGGVVVLGCVG, the protein stability index in the data set with Saccharomyces cerevisiae [1] (setting [3]) amounted to 0.645 ± 0.03; with Saccharomyces cerevisiae [1] (setting [4]), 0.711 ± 0.02; in the data set on Saccharomyces cerevisiae [1] (setting [5]) it was 0.549 ± 0.013; with Saccharomyces cerevisiae [1] (setting [6]) it was 0.684 ± 0.02; in the data set with Saccharomyces cerevisiae [1] (setting [7]), 0.555 ± 0.027; with Saccharomyces cerevisiae [1] (setting [8]), 0.5598 ± 0.0053. Moreover, the protein stability index turned out to be 0.67072 ± 0.0004 with Saccharomyces cerevisiae [1] (setting [9]) and 0.476 ± 0.0028 in the data set on Saccharomyces cerevisiae [2].

Take RVGYSIIIIGIE: the protein stability index amounted to 0.351 ± 0.026 in the data set with Saccharomyces cerevisiae [1] (setting [3]); 0.433 ± 0.087 in the data set with Saccharomyces cerevisiae [1] (setting [4]); 0.312 ± 0.042 in the data set on Saccharomyces cerevisiae [1] (setting [5]); 0.48295 ± 0.00022 in the data set on Saccharomyces cerevisiae [1] (setting [6]); 0.244 ± 0.0084 in the data set with Saccharomyces cerevisiae [1] (setting [7]); 0.303 ± 0.019 with Saccharomyces cerevisiae [1] (setting [8]). Moreover, the protein stability index in the data set on Saccharomyces cerevisiae [1] (setting [9]) was found to be 0.457 ± 0.029; with Saccharomyces cerevisiae [2], 0.354 ± 0.0038.

The values are drawn from the supplement of paper PMC10724198.
